US20250154215A1, “PHARMACEUTICAL COMPOSITION FOR TREATING COLITIS OR COLORECTAL CANCER COMPRISING COLON-TARGETED S100A8/A9-DERIVED SPECIFIC PEPTIDE” (Industry-University Cooperation Foundation Hanyang …, priority 2023, published 2025)
“Also recorded” adds a separate entry of the source.

Legend:
Format in all cases: in vivo, mice
[1] = AOM/DSS-induced colitis-associated colorectal cancer (CAC) mouse model
Text: Weight of mice compared to baseline during AOM/DSS administration. In this experiment, weight loss is a surrogate indicator of colitis severity. Data is representative of two independent experiments with similar results. […] Note the higher tumor burden in the distal colon/rectum and the characteristic wrinkled texture of the proximal colon with little tumor growth. […] Most tumors are located in the distal colon, and their sizes are less than 2 mm. Data is shown as the mean±SD of six experiments. […] H&E and β-catenin stained slides show dysplastic changes similar to human colonic adenocarcinoma;
(§1) DSS-induced acute or chronic colitis and AOM/DSS CRC mouse models were prepared using 6-week-old C57BL/6 female mice (Samtako Bio, Osan, Korea). To assess the induction of acute colitis, mice were exposed ad libitum to 3% (w/v) dextran sodium sulfate (molecular weight: 36-50 kDa, MP Biomedicals, Santa Ana, CA, USA) dissolved in drinking water. The mouse models are illustrated in FIGS. 7A, 5E, and 6A. DSS solutions were prepared every two days. […] The humane endpoint for weight loss (requiring euthanasia) was 20% (compared to the original body weight of an animal). Without an approved exception request, body weight loss could not exceed 20%.
AOM/DSS-treated mice were administered rCT-S100A8/A9 four times according to the administration frequency during three DSS cycles until week 10 (FIG. 9A, top). […] Tumor induction by AOM/DSS treatment was mainly observed in the distal colon and produced colonic shortening in the CAC mouse model.

[2] = DSS-induced chronic colitis mouse model
Method: as §1
(§2) The clinical score of colitis was obtained by measuring body weight, fecal occult blood or total blood loss, and stool consistency every other day during the induction of colitis. The clinical score were assessed by two trained investigators who were randomly selected. For immunohistochemical analysis of tissue sections, mouse distal colon tissues were fixed in 10% formalin and embedded in paraffin. Paraffin sections ([…]) were cut and stained with H&E. Histopathological scoring was performed by a certified pathologist (Min-Kyung Kim, Department of Pathology, Kim Min-Kyung Pathology Clinic, Seoul, Korea) who scored each organ section independently without prior knowledge of the treatment group.
Next, the therapeutic effect of rCT-S100A8/A9 on chronic colitis was confirmed. Chronic DSS colitis was induced by three cycles of DSS+water combination, and intraperitoneal rCT-S100A8/A9 injection was performed once a day for three consecutive days of DSS administration in each cycle.

[3] = DSS-induced acute colitis mouse model
Method: as §1, §2
The therapeutic efficacy of rCT-S100A8/A9 on DSS-induced acute colitis in mice was evaluated. After colitis was induced by DSS, the mice were intraperitoneally injected with rCT-S100A8/A9 (50 μg/kg) once daily for 6, 7, or 8 days, and sacrificed on day 12 to evaluate the effect of treatment frequency (FIG. 7A, top). […] Next, the length of the colon, which is an indicator of colitis, was evaluated.

[4] = vs rVehicle or rCT-treated group

B1: TWYKIAFQRNRKTWYKIAFQRNRKTWYKIAFQRNRKTWYKIAFQRNRKTWYKIAFQRNRKGGFLVIKGGAHKSHKGGITIITFGGGHHGGFLVIKGGAHKSHKGGITIITFGGGHHGGFLVIKGGAHKSHKGGITIITFGGGHHGG (protein)
chain: TWYKIAFQRNRKTWYKIAFQRNRKTWYKIAFQRNRKTWYKIAFQRNRKTWYKIAFQRNRKGGFLVIKGGAHKSHKGGITIITFGGGHHGGFLVIKGGAHKSHKGGITIITFGGGHHGGFLVIKGGAHKSHKGGITIITFGGGHHGG
modifications: N-terminal 6xHis tag
- colonic length ([1]; AOM/DSS): restored
- histological colonic damage (H&E) ([1]; AOM/DSS): significant alleviation; also recorded: significantly alleviated
- tumor burden in the distal colon ([1]; AOM/DSS): decreased
- β-catenin protein levels in colon (immunohistochemistry) ([1]; AOM/DSS): effectively suppressed
- body weight gain ([1]; AOM/DSS, three DSS cycles until week 10): higher weight gain rate according to the treatment frequency; also recorded: increased
- epithelial-to-mesenchymal transition (profiler PCR array) ([1]; CRC colon tissues): regulated
- number of tumors less than 2 mm ([1]; treatment for three consecutive days): significantly reduced
- colon damage (H&E staining) ([2]; 2.5% DSS chronic colitis): decreased; also recorded: alleviated
- colon length ([2]; 2.5% DSS chronic colitis): recovered
- survival rates ([2]; DSS-induced chronic colitis): significantly increased
- body weight loss ([2]; i.p. once a day for three consecutive days per DSS cycle): significantly reduced body weight loss
- macrophage polarization (M1/M2 markers) ([2]; macrophages and colonic lysates, real-time PCR): not affected
- survival rate ([3]; 50 μg/kg i.p. once daily, 3% DSS): significantly increased
- colon damage (H&E staining) ([3]; 3% DSS acute colitis): reduced according to the frequency of rCT-S100A8/A9 treatment; also recorded: alleviated
- colon length ([3]; 3% DSS acute colitis): recovered in proportion to the number of rCT-S100A8/A9 treatments
- levels of pro-inflammatory cytokines (TNF-α, IL-1β, IL-6, IL-18) and MPO activity in colonic homogenates ([3]; DSS colitis): significantly reduced; also recorded: successfully reduced the secretion of IL-1β and IL-18
- TLR4 (or RAGE)-S100A8 (or S100A9) and NLRP3-ASC interactions in colon ([3]; colon co-IP, DSS treatment): decreased
- body weight loss [3, 4]: less body weight loss
- colitis scores [3, 4]: lower colitis scores
